Experimental data taken from patent US11994512B2, “Single-cell genomic methods to generate ex vivo cell systems that recapitulate in vivo biology with improved fidelity” (Massachusetts Institute of Technology, priority 2018, dated 2024).

B1: Q3UW68 (protein, UniProt Q3UW68 1-665, looked up)
chain: MAHDAETSVVKFKNQDFRTLRDHCLSRGQLFIDDTFPAAASSIGEKLLRGKHLSKLEWKRPTSKDLPFYPPHFILEGASRFDIHQGIAGDCWFLAALGSLTQNPQCLQKILMDQSYSHQYAGIFQFRFWQCGQWVEVVIDDQLPVIGDNFLFVHPRGGNKEFWPCLMEKAYAKLLGSYSQLHYGYLPDALVDLTGGVVTIINLHSSPFDLLTTVKTAIQAGSMVACATENGLTEEAKVMENGLVSQHAYTVTGAEKIQYQGRWEDIIRLWNPWGKTEWKGRWKDGSKEWRETHDPRKSQLYENKEDGEFWMSCQDFQENFSCLFICNQIPITMDHGVTPNESWRQMRFTNQVISRNRAGGHGRDMQYVFSVQEHTAGNNVVVAFTIMPQSLNTEEERFPLQFQVFKVPQFQNVQGRLPPAFFSPFRSAAQGTKYVSKCNFTKSFHLNPGTYVVVTTANGKEVEFLLRIFLKMPDKHRDPSSNFNLRALKESLPENGSRNSISYTYMDQGLDIDATQLQSLLNQEFLTGPPGDTFSLDQCQSIMALMDLKVNGRLDQEEFARLRSRLIHCQHIFQSIQRRPGVLLSSDLWKVIENTDFLVGIFISSELLSLMALRYSDSSGRVSFPTLVCFLIRLETMAKAFRNLSKDGKGIYLTETEWMNLVMYS
modifications: full-length
B2: Q3UHD3 (protein, UniProt Q3UHD3 1-1353, looked up)
chain: MSVPLAPKKSCFGQLRDHREGAKNNNESILRTGDTNANQIMLEVSSSCDEAKSRDLDDELGNSNLSRPQYHSHFQKEPLHLQGFGKGSQAGSTSQRESQASLTVHRQLSEEHAVKRGALQAPQCVQGPSLSSWRNAVGQASPEASAKKDAEIPRHIPKDKLAKTLDNEELKRASSCSAAAGSVPPTDLQPVQLDTLGPQDHVPARGEGPQRTPASHSPGKGFSPGEGTSEGNSVYLPKPSTSEAKGSSPSDTKMEGPHGLDVYNERITHAELTPSSASASKENPGLRHPEVCLGQGTGKSKVELKSVQPRNEEGLTSAQAQGPGCHEERSMSPVERQELLEKAYREATSQGNSSHRQLGVRRGSSLEEMTGVSAGVEGSQQATPTLSAAPAGEAGTRLTGKMSAGVGRMARETASGQTAPDVGQAAPVRRDPTESVPSEVSGEERRLGSGNSGSTKLLASGPSAGGSRTDTSGLLSPRGSNLEARKGKEMVAENRNLLENAAQTDNTPAGVDSAFSTPAPLLHPETTVNSSHHPTPPGSSSQELGVFSGDTGSPSVASPPTDGGQVLNTSPKVPDRTTCSSGIPKPPTHPKDTPSSQEAREKLETEKMEERAEAKPILMPKPKHVRPKIITYIRRNPQALSQGDASLVPVGLPYAPPTCGMPLPQEEKAASRDLQPSANMYEKLKPDLQKPRVFPSGLMVSGIKPPAHHFSQMSEKFLQEVADHPGKEEFCSPPYTHYEVPPTFYRSAMLLKPQLGLGAMSRLPSTKSRILIASQRSSASAIHPPGSLTTAASFYGSDPSDLKKASNSNAAKASLPKSGLRPPGYSRLPAAKLAAFGFVRSSSISAVPSSQSLDSVQPEQSRPVTRSTFGNEEQAPLKQALPSKDTPKGAGRAAPASSSNATTPRRSLLPAPKSTSTPAGAKKELQKDPEAKKPAVSSPKRTASAATKPHSPGYPKQRTSAPRNEFPPKPDLQAREAERQLAQRLRDRCEWQARQLGLARRELKKAIQGFDALAVSTKHFFGKSERALAKEKELSIELANIRDEVAFNTAKCEKLQKEKETLERRFEEELRRLGWQQQAEVQELQERLQQQFQAESARLQAEHQDQLLRMRCQHQEQVEDITASHEAALLEMENNHTVAITILQDDHDHKVQELMSTHEFEKKELEENFEKLRLTLQDQVDTLTFQSQSLRDRARRFEEALRKTTEEQLEIALAPYQHLEEDMQSLKQVLEMKNQQIHLQEKKIIELEKLVEKNIILEERIQVLQQQNEDLKARIDQNTVVTRQLSEENANLQEYVEKETQEKKRLSRTNEELLWKLQTGDPTSPIKLSPTSPVYRGSSSGPSSPARVSTTPR
modifications: full-length
B3: Q3UQ28 (protein, UniProt Q3UQ28 1-1475, looked up)
chain: MAVRPTRRCLLALLLCFAWWAMAVVASKQGAGCPSRCLCFRTTVRCMHLLLEAVPAVAPQTSILDLRFNRIREIQPGAFRRLRSLNTLLLNNNQIKKIPNGAFEDLENLKYLYLYKNEIQSIDRQAFKGLASLEQLYLHFNQIETLDPESFQHLPKLERLFLHNNRITHLVPGTFSQLESMKRLRLDSNALHCDCEILWLADLLKTYAQSGNAQAAATCEYPRRIQGRSVATITPEELNCERPRITSEPQDADVTSGNTVYFTCRAEGNPKPEIIWLRNNNELSMKTDSRLNLLDDGTLMIQNTQEADEGVYQCMAKNVAGEAKTQEVTLRYLGSPARPTFVIQPQNTEVLVGESVTLECSATGHPLPQITWTRGDRTPLPIDPRVNITPSGGLYIQNVAQSDSGEYTCFASNSVDSIHATAFIIVQALPQFTVTPQSRVVIEGQTVDFQCAAKGHPQPVIAWTKGGSQLSVDRRHLVLSSGTLRISGVALHDQGQYECQAVNIIGSQKVVAHLTVQPRVTPVFASIPSDMTVEVGTNVQLPCSSQGEPEPAITWNKDGVQVTESGKFHISPEGFLTINDVGTADAGRYECVARNTIGYASVSMVLSVNVPDVSRNGDPYVATSIVEAIATVDRAINSTRTHLFDSRPRSPNDLLALFRYPRDPYTVGQARAGEIFERTLQLIQEHVQHGLMVDLNGTSYHYNDLVSPQYLSLIANLSGCTAHRRVNNCSDMCFHQKYRTHDGTCNNLQHPMWGASLTAFERLLKAVYENGFNTPRGINSQRQYNGHVLPMPRLVSTTLIGTEVITPDEQFTHMLMQWGQFLDHDLDSTVVALSQARFSDGQHCSSVCSNDPPCFSVMIPPNDPRVRSGARCMFFVRSSPVCGSGMTSLLMNSVYPREQINQLTSYIDASNVYGSTDHEARSIRDLASHRGLLRQGIVQRSGKPLLPFATGPPTECMRDENESPIPCFLAGDHRANEQLGLTSMHTLWFREHNRIAAELLKLNPHWDGDTVYHETRKIVGAEIQHITYRHWLPKILGEVGMKMLGEYRGYDPSVNAGIFNAFATAAFRFGHTLINPLLYRLDENFEPIPQGHVPLHKAFFSPFRIVNEGGIDPLLRGLFGVAGKMRIPSQLLNTELTERLFSMAHTVALDLAAINIQRGRDHGIPPYHDYRVYCNLSAAYTFEDLKNEIKSPVIREKLQRLYGSTLNIDLFPALMVEDLVPGSRLGPTLMCLLSTQFRRLRDGDRLWYENPGVFSPAQLTQLKQTSLARILCDNSDNITRVQQDVFRVAEFPHGYSSCEDIPRVDLRVWQDCCEDCRTRGQFNAFSYHFRGRRSLEFSYEDDKPTKRARWRKALSVKHGKHLSNATSATHEHLEGPATNDLKEFVLEMQKIITDLRKQINSLESRLSTTECVDDSGESHGGNTKWKKDPCTVCECKNGQITCFVEACQPAACPQPVKVEGACCPVCLKNTAEEKP
modifications: full-length
B4: Q3UR50 (protein, UniProt Q3UR50 1-1248, looked up)
chain: MPGLYCPTSWTPLPLTDSCVRAYAKGPCLSLRARLTYHNPQPQPVEGVFVYPLAEAEVVSGFEAEAAGRRVSFQLHSRRRSQAACCRALGPGLGTSTPRRCAQGHLVLNLAQARSTLVLPTGLVAAAGTMTVTLCSSRELPSRPDGVMHVALPTVFTPLAQPNLPGSPRSPGLCDDSPTSCFGVGSPEEERPTWEQPTATPDVFSGPARCPAPYTFSFEMLVTGPCLLAGLESPSHALRADALPHASSAATIRVTLAEGHQCDRALEILLHPSEPHQPHLMLETGSLSSAEYEAQVRARHDFQRLQQRDSGGERQVWFLQRRFHKDILLNPVLVLNFCPDLSSKPGHLNAATRELLFLLDGSGAGHKDAIVLAVKSLPAQTLVNLAIFGTLVQPLFPESRPCSDDTVQLICESIETLQTVNGPPDMLAVLDWALGQPQHRAYPRQMFLITAASPTAATTHQALEFMRWHRGAARCFSFALAPACRQLLHDLSVLSRGQAYFLRPGERLQPKLVQALRKALEPALSDISVDWFVPDAVEALLTPREIPALYPGDQLLGYCSLFRVDGFRSHALGGQEPGWQSLAGSVFPSPEEVLSATSPGTEPTHTTEPLGTGTVSAELSSPWAVGDSEQSMEALTDPVMDPGPNPSSDTAIWRRIFQSSYIREQYVLTHCSASPEPGPGSTCSSESPGSQGPGSPSGSRPLDPPSQQGCRSLAWVEPAGSRSCPLPVPPPSPFKVGAMSAEVLGRRQRAALAGRSLSSPSGRANPVPGRARHPSLDAIPDGLGPEPGQQLGQGLDDSGNLLSPAPLDWDMLMEPSFLFKPVPSSAESAPPAECLPPQAPRCHVVIRALCGEQPMCWEVGVGLEELWGPGDGSQPESLPMREAAWDQALHRLTAASVVQDNEQLALRGRAETRAEQGRVRRSWLRAIQTSKVSSAPSCFTCPVAVDATTREVLPGALQVWSSDPAELSGMSASQDQLAAAPLSTAVHSKGHQGGCSAGAWDLDLNDNSKSALGEPISPTGDHHGLPHQPPASSRLSLGRHRRLCSSNKGQTHENSNDGSNHDYLPLVRLQEAPGSFRLDEPFCAAVCIPQERLCRASPFAAHRASLSPTSASSPWAFLSPGIGQGDSATASCSQSPSSGSEGPGQVDSGRGSDTEASEGMERQDSSDLRGRTWATAVALAWLEHRCAAAFGEWELTASKADCWLRAQHLPDGLDLTALKAAARGLFLLLRHWDQNLQLHLLCYSPSNV
modifications: full-length

tested on: intracellular proteome of ENR+CD and ENR organoids; test: LC-MS/MS TMT proteomics of ENR+CD versus ENR organoids; type: cell-based, C57BL/6 mice; conditions: protein abundance, ENR+CD versus ENR organoids; aggregate of the four sample pairs

**Q.** For B1, which “Average logFC” value is on record?
**A.** −1.164

**Q.** Which “Average logFC” value does the source give for B2 here?
**A.** 1.47

**Q.** With B3 as the molecule, how does the “Average logFC” value read?
**A.** 1.294

**Q.** With B4 as the molecule, how does the “Average logFC” value read?
**A.** 1.46

same assay, conditions: protein abundance, ENR+CD versus ENR organoids; replicate M1-1; log2 ratio

**Q.** With B1 as the molecule, how does the “M1-1 Log2 Median Normalized” value read?
**A.** −1.402

**Q.** B2 was tested. Which “M1-1 Log2 Median Normalized” value did it give?
**A.** 1.347

**Q.** For B3, which “M1-1 Log2 Median Normalized” value is on record?
**A.** 1.157

**Q.** How did the “M1-1 Log2 Median Normalized” value turn out when B4 was run?
**A.** 1.678

same assay, conditions: protein abundance, ENR+CD versus ENR organoids; replicate M1-2; log2 ratio

**Q.** How did the “M1-2 Log2 Median Normalized” value turn out when B1 was run?
**A.** −1.492

**Q.** With B2 as the molecule, how does the “M1-2 Log2 Median Normalized” value read?
**A.** 0.087

**Q.** How did the “M1-2 Log2 Median Normalized” value turn out when B3 was run?
**A.** 1.486

**Q.** Which “M1-2 Log2 Median Normalized” value does the source give for B4 here?
**A.** 1.171

same assay, conditions: protein abundance, ENR+CD versus ENR organoids; replicate M2-1; log2 ratio

**Q.** With B1 as the molecule, how does the “M2-1 Log2 Median Normalized” value read?
**A.** −1.0855

**Q.** B2 was tested. Which “M2-1 Log2 Median Normalized” value did it give?
**A.** 1.7985

**Q.** B3 was tested. Which “M2-1 Log2 Median Normalized” value did it give?
**A.** 1.3875

**Q.** With B4 as the molecule, how does the “M2-1 Log2 Median Normalized” value read?
**A.** 1.6125

same assay, conditions: protein abundance, ENR+CD versus ENR organoids; replicate M2-2; log2 ratio

**Q.** How did the “M2-2 Log2 Median Normalized” value turn out when B1 was run?
**A.** −0.676

**Q.** How did the “M2-2 Log2 Median Normalized” value turn out when B2 was run?
**A.** 2.649

**Q.** How did the “M2-2 Log2 Median Normalized” value turn out when B3 was run?
**A.** 1.146

**Q.** How did the “M2-2 Log2 Median Normalized” value turn out when B4 was run?
**A.** 1.377

same assay, conditions: up = enriched in ENR+CD, down = enriched in ENR; FDR<0.05 and log fold change cut-off

**Q.** Which change does the source give for B1 here?
**A.** down

**Q.** How did the change turn out when B2 was run?
**A.** up

**Q.** Which change does the source give for B3 here?
**A.** up

**Q.** With B4 as the molecule, how does the change read?
**A.** up
